Measurements reported in paper PMC4052767 (Genes & Development, 2014).
Entries after “also recorded” stand apart in the source; their conditions may differ.

Key:
[1] = system: hat1Δ yeast; assay: DNA damage sensitivity assay; assay type: cell-based; details: synthetic medium in the absence or presence of methyl methane sulfonate (MMS); H3K9,14R allele as sole H3; Supplemental Fig. S4
[2] = system: histone H4 (H4K5, H4K12); details: cited from earlier work; for acetylation site specificity on H4 (literature): in vitro, complex purified from yeast extracts or recombinant yeast Hat1p; for acetylation site specificity on H4 (literature) / enhancement of enzymatic activity of Hat1p: ref Parthun et al. 1996; for enhancement of enzymatic activity of Hat1p: by facilitating H4 association with Hat1p
[3] = system: histone H4 in nucleosomes; details: ref Kleff et al. 1995; Parthun et al. 1996; cited from earlier work
[4] = system: histone H4 (H4K5, H4K12); details: no ref printed in the sentence; cited from earlier work

Molecule | acetylation site specificity on H4 (literature) [2] | enhancement of enzymatic activity of Hat1p [2] | further results
W197E (protein, left off: GST (from the vector pGEX6p-1), end not stated, cleaved) MSANDFKPETWTSSANEALRVSIVGENAVQFSPLFTYPIYGDSEKIYGYKDLIIHLAFDSVTFKPYVNVKYSAKLGDDNIVDVEKKLLSFLPKDDVIVRDEAKWVDCFAEERKTHNLSDVFEKVSEYSLNGEEFVVYKSSLVDDFARRMHRRVQIFSLLFIEAANYIDETDPSWQIYWLLNKKTKELIGFVTTYKYEHYLGAKSFDEDIDKKFRAKISQFLIFPPYQNKGHGSCLYEAIIQSWLEDKSITEITVEDPNEAFDDLRDRNDIQRLRKLGYDAVFQKHSDLSDEFLESSRKSLKLEERQFNRLVEMLLLLNNS |  |  | complementation of DNA damage sensitivity in hat1Δ yeast [1]: able to complement the DNA damage sensitivity in the hat1Δ yeast
Hat1p/Hat2p complex: yeast histone acetyltransferase complex Hat1p/Hat2p (protein, left off: 6xHis, N-terminal, state not stated) chain 1: MSANDFKPETWTSSANEALRVSIVGENAVQFSPLFTYPIYGDSEKIYGYKDLIIHLAFDSVTFKPYVNVKYSAKLGDDNIVDVEKKLLSFLPKDDVIVRDEAKWVDCFAEERKTHNLSDVFEKVSEYSLNGEEFVVYKSSLVDDFARRMHRRVQIFSLLFIEAANYIDETDPSWQIYWLLNKKTKELIGFVTTYKYWHYLGAKSFDEDIDKKFRAKISQFLIFPPYQNKGHGSCLYEAIIQSWLEDKSITEITVEDPNEAFDDLRDRNDIQRLRKLGYDAVFQKHSDLSDEFLESSRKSLKLEERQFNRLVEMLLLLNNS chain 2: MENQEKPLSVDEEYDLWKSNVPLMYDFVSETRLTWPSLTVQWLPTPVQELDGGFIKQELIIGTHTSGEEENYLKFAEINLPKEILSNEDPQEEAGEEYQSSLPAPRSNIRITAKYEHEEEITRARYMPQDPNIVATINGQGTVFLYSRSEGLQSTLKFHKDNGYALSFSTLVKGRLLSGSDDHTVALWEVGSGGDPTKPVRTWNDLHSDIINDNKWHNFNKDLFGTVSEDSLLKINDVRANNTTIDTVKCPQPFNTLAFSHHSSNLLAAAGMDSYVYLYDLRNMKEPLHHMSGHEDAVNNLEFSTHVDGVVVSSGSDNRLMMWDLKQIGAEQTPDDAEDGVPELIMVHAGHRSSVNDFDLNPQIPWLVASAEEENILQVWKCSHSLPIVGGPPKVNKDIIS | specifically acetylated H4K12 residue; also recorded: highly specific for H4K12 |  | 
Hat1p: yeast Hat1p (1–320), type B histone acetyltransferase (protein) MSANDFKPETWTSSANEALRVSIVGENAVQFSPLFTYPIYGDSEKIYGYKDLIIHLAFDSVTFKPYVNVKYSAKLGDDNIVDVEKKLLSFLPKDDVIVRDEAKWVDCFAEERKTHNLSDVFEKVSEYSLNGEEFVVYKSSLVDDFARRMHRRVQIFSLLFIEAANYIDETDPSWQIYWLLNKKTKELIGFVTTYKYWHYLGAKSFDEDIDKKFRAKISQFLIFPPYQNKGHGSCLYEAIIQSWLEDKSITEITVEDPNEAFDDLRDRNDIQRLRKLGYDAVFQKHSDLSDEFLESSRKSLKLEERQFNRLVEMLLLLNNS | not only able to acetylate H4K12 but also exhibited low activity to H4K5; also recorded: acetylated both H4K5 and H4K12 in vitro |  | acetylation of histone H4 in nucleosomes [3]: cannot acetylate histone H4 in nucleosomes; acetylation of H4K5 and H4K12 (recombinant yeast Hat1, literature) ([2]; recombinant yeast Hat1, no ref printed in the sentence): can acetylate both H4K5 and H4K12
recombinant human: recombinant human Hat1 (protein, UniProt O14929 2-419, looked up) Histone acetyltransferase …: AGFGAMEKFLVEYKSAVEKKLAEYKCNTNTAIELKLVRFPEDLENDIRTFFPEYTHQLFGDDETAFGYKGLKILLYYIAGSLSTMFRVEYASKVDENFDCVEADDVEGKIRQIIPPGFCTNTNDFLSLLEKEVDFKPFGTLLHTYSVLSPTGGENFTFQIYKADMTCRGFREYHERLQTFLMWFIETASFIDVDDERWHYFLVFEKYNKDGATLFATVGYMTVYNYYVYPDKTRPRVSQMLILTPFQGQGHGAQLLETVHRYYTEFPTVLDITAEDPSKSYVKLRDFVLVKLCQDLPCFSREKLMQGFNEDMVIEAQQKFKINKQHARRVYEILRLLVTDMSDAEQYRSYRLDIKRRLISPYKKKQRDLAKMRKCLRPEELTNQMNQIEISMQHEQLEESFQELVEDYRRVIERLAQE |  |  | acetylation of H4K5 and H4K12 (recombinant human Hat1, literature) [4]: can acetylate both H4K5 and H4K12
Hat2p: WD40 repeat protein, binding partner of Hat1p (protein, left off: 6xHis, N-terminal, kept) MENQEKPLSVDEEYDLWKSNVPLMYDFVSETRLTWPSLTVQWLPTPVQELDGGFIKQELIIGTHTSGEEENYLKFAEINLPKEILSNEDPQEEAGEEYQSSLPAPRSNIRITAKYEHEEEITRARYMPQDPNIVATINGQGTVFLYSRSEGLQSTLKFHKDNGYALSFSTLVKGRLLSGSDDHTVALWEVGSGGDPTKPVRTWNDLHSDIINDNKWHNFNKDLFGTVSEDSLLKINDVRANNTTIDTVKCPQPFNTLAFSHHSSNLLAAAGMDSYVYLYDLRNMKEPLHHMSGHEDAVNNLEFSTHVDGVVVSSGSDNRLMMWDLKQIGAEQTPDDAEDGVPELIMVHAGHRSSVNDFDLNPQIPWLVASAEEENILQVWKCSHSLPIVGGPPKVNKDIIS |  | significantly enhanced the enzymatic activity of Hat1p | 
RbAp46: human homolog of Hat2p, retinoblastoma-binding protein (protein, UniProt Q16576 2-425, looked up) Histone-binding protein RBBP7: ASKEMFEDTVEERVINEEYKIWKKNTPFLYDLVMTHALQWPSLTVQWLPEVTKPEGKDYALHWLVLGTHTSDEQNHLVVARVHIPNDDAQFDASHCDSDKGEFGGFGSVTGKIECEIKINHEGEVNRARYMPQNPHIIATKTPSSDVLVFDYTKHPAKPDPSGECNPDLRLRGHQKEGYGLSWNSNLSGHLLSASDDHTVCLWDINAGPKEGKIVDAKAIFTGHSAVVEDVAWHLLHESLFGSVADDQKLMIWDTRSNTTSKPSHLVDAHTAEVNCLSFNPYSEFILATGSADKTVALWDLRNLKLKLHTFESHKDEIFQVHWSPHNETILASSGTDRRLNVWDLSKIGEEQSAEDAEDGPPELLFIHGGHTAKISDFSWNPNEPWVICSVSEDNIMQIWQMAENIYNDEESDVTTSELEGQGS |  | significantly enhanced the enzymatic activity of Hat1p | 
